doi:10.1101/2024.03.19.585761

Target: ErbB2 (natural, endogenous in BT474 and MCF7 cells) (human (endogenous in MCF7 and BT474)) (UniProt P04626)
Experiment: PICO

ErbB2:ErbB3 complexes per cell (ppc), BT474 mock, antibody pair TTZ-2F12: 662 ppc | ErbB2:ErbB3 complexes per cell (ppc), BT474 mock, antibody pair TTZ-Ab90: 831 ppc | ErbB2:ErbB3 complexes per cell (ppc), MCF7 dactolisib, antibody pair TTZ-2F12: 8670 ppc | ErbB2:ErbB3 complexes per cell (ppc), MCF7 mock, antibody pair TTZ-2F12: 4370 ppc | ErbB2:ErbB3 complexes per cell (ppc), MCF7 mock, antibody pair TTZ-Ab90: 5200 ppc | ErbB2:ErbB3 complexes per cell, BT474 dactolisib (molecules per cell): < 181 | percent of ErbB2 bound to ErbB3, BT474 mock: 0.09%
Substance: ErbB3 (endogenous in BT474 and MCF7 cells) (from UniProt P21860 20-1342) (receptor)
